A short description of series [1]: Fluorescence (CPM) thermostability assay of β2AR constructs. Format: physicochemical. The settings on record: 100 μM timolol; for thermostability: more stable than β2AR-T4L: increase relative to β2AR-T4L; for thermostability: less stable relative to β2AR-T4L: decrease relative to β2AR-T4L. Here is the method: N-[4-(7-diethylamino-4-methyl-3-coumarinyl)phenyl]maleimide (CPM) dye was purchased from Invitrogen and dissolved in DMSO (Sigma) at 4 mg/mL as the stock solution for future use. The stock solution was kept at −80° C. and was diluted 1:40 in dye dilution solution (10 mM buffer, 500 mM NaCl, 10% glycerol, 0.025% DDM and 0.005% CHS) before use. The thermal denaturation assay was performed with total volume of 200 μL sample in a quartz fluorometer cuvette (Starna Cells, Inc., Atascadero, Calif.). Receptor (4 μg) was diluted in the appropriate buffer solution to a final volume of 200 μL, 5 μL of the diluted dye was added to the protein solution and incubated for 30 min at 4° C. The mixed solution was transferred to the cuvette and the data were collected by a Cary Eclipse spectrofluorometer (Varian, USA) with a temperature ramping rate at 2° C./min. The excitation wavelength was 387 nm and the emission wavelength was 463 nm. All assays were performed over a temperature range starting from 20° C. and 95° C. The stability data were processed with GraphPad Prism program (GraphPad Prism, Graphpad Software, San Diego, Calif., USA). In order to determine the melting temperature (Tm), a Boltzmann sigmoidal equation was used to fit to the data.
The thermostability of the different β2AR constructs was then evaluated. Assays were carried out in the presence of 100 μM timolol to maintain receptor stability during heating. […] We thus selected β2AR-BRIL and β2AR rubredoxin for further crystallization studies.

Series [2] can be described thus: Size exclusion chromatography (SEC) of purified S1P1-fusion partner proteins. Format: physicochemical. To be noted: presence or absence of ligand. Here is the method: S1P1-fusion partner proteins (“S1P1 fusion receptors”) were purified from membranes by dodecyl-maltoside (DDM) extraction followed by immobilized metal affinity chromatography (IMAC) on Talon resin (Clontech) as detailed below. Frozen cellular membranes were thawed by adding room temperature lysis buffer to a total volume of 25 mL. The S1P1 receptor antagonist W146 was added to a final concentration of 125 μM. The mixture was allowed to incubate at room temperature for 1 hour to ensure complete saturation of the receptor with ligand followed by addition of iodoacetamide to a concentration of 1 mg/mL and an additional 1 hour incubation at 4° C. Receptor solubilization was initiated by addition of detergent and cholesteryl hemisuccinate (CHS) to achieve a final concentration of 0.5% DDM 0.1% CHS. The solubilization buffer consisted of the following mixture: 50 mM Hepes pH 7.5; 800 mM NaCl; 30 mM Imidazole; 0.1% DDM 0.02% CHS; 125 μM W146. […]
Eluted proteins were analyzed by size-exclusion chromatography (SEC) followed by SDS-PAGE. […] SEC fractions corresponding to S1P1-fusion partner proteins were evaluated separated by SDS-PAGE on a 10% gel and stained, confirming that each S1P1-fusion partner protein could be purified to near-homogeneity (data not shown).
A general note: Size exclusion chromatography separates by hydrodynamic size, large species first.

With “132AR-rubredoxin: β2-adrenergic receptor fused with rubredoxin, SEQ ID NO: 11”, the “thermostability: more stable than β2AR-T4L” value in series [1] was “approximately 8 °C”.

On to “S1P1-Bril: S1P1 receptor with cytochrome b562 RIL replacing part of ICL3, SEQ ID NO: 2”, for which the “stability by SEC (in words)” value in series [2] is “stable in the presence or absence of ligand”.

For “β2AR xylanase: β2-adrenergic receptor fused with xylanase, SEQ ID NO: 12”, the “thermostability: more stable than β2AR-T4L” value in series [1] is “about 3 °C”.

As for “β2AR-BRIL: β2-adrenergic receptor with cytochrome b562 RIL replacing the third intracellular loop, SEQ ID NO: 10”, the “thermostability: more stable than β2AR-T4L” value in series [1] is “approximately 8 °C”.

With “β2AR-C-term T4L: β2-adrenergic receptor fused with T4 lysozyme C-terminal fragment, SEQ ID NO: 9”, the “thermostability: less stable relative to β2AR-T4L” value in series [1] is about 4 °C.

“β2AR-flavodoxin: β2-adrenergic receptor fused with flavodoxin in place of T4L, SEQ ID NO: 13”: in series [1], the “thermostability: less stable relative to β2AR-T4L” value is “about 9 °C”.

The record behind these values is US20170218047A1, “NOVEL FUSION PARTNERS FOR THE PURPOSE OF CRYSTALLIZING G-PROTEIN COUPLED RECEPTORS” (THE SCRIPS RESEARCH INSTITUTE, priority 2011, published 2017).
